Data on 2 substances can be found in publication PMC10897201.

One experiment deals with CD2 (human) (UniProt P06729).
The target in experiment [1] is surface Spycatcher fused to the hinge of hCD52 (human). The experiment can be described thus: flow cytometry on cells; titration of purified Spytag-mClover3 on CHO-K1 cells transduced with surface Spycatcher; covalent coupling read by mClover3 fluorescence.

Chain of UniProt P06729 (P06729 25-351): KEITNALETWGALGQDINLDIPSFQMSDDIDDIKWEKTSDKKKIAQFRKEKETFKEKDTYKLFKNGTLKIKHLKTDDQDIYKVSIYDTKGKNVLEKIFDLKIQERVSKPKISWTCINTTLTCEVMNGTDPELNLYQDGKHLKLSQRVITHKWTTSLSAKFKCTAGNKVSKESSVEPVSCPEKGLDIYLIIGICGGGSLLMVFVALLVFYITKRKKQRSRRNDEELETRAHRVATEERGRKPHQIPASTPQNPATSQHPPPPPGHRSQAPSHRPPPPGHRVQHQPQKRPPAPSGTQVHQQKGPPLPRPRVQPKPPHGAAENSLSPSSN

In the experiment with CD2 (human), “full extracellular domain of CD58 fused to a C-terminal Spytag and Histag (from UniProt P19256 29-215) (ligand)” showed a fold improvement of antigen sensitivity, 4-1BB, 1G4 TCR T cells, with the CD2 ligand against pMHC alone of 230 fold; a fold improvement of antigen sensitivity, 4-1BB, D52N CAR T cells, with the CD2 ligand against pMHC alone of 11 fold; a fold improvement of antigen sensitivity, IL-2, 1G4 TCR T cells, with the CD2 ligand against pMHC alone of 46 fold; a fold improvement of antigen sensitivity, IL-2, D52N CAR T cells, with the CD2 ligand against pMHC alone of 3.9 fold.
Consider purified mClover3 fused to Spytag, for which the concentration at saturation in experiment [1] worked out at 1 µM.
